T1: cynomolgus TCRαβ-zipper protein (cynomolgus)
T1 construct: also called cyTCR(AEA41865)-zipper; CynoTCRαβ-zipper
T1 TCR alpha: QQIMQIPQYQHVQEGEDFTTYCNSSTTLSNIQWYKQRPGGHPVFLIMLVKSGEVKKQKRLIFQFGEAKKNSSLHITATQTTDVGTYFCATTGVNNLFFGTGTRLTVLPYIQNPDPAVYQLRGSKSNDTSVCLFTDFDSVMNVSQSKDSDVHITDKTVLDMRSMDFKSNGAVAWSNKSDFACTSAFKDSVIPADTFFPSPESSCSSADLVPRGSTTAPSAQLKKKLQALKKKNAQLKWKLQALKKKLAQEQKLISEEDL
T1 TCR beta: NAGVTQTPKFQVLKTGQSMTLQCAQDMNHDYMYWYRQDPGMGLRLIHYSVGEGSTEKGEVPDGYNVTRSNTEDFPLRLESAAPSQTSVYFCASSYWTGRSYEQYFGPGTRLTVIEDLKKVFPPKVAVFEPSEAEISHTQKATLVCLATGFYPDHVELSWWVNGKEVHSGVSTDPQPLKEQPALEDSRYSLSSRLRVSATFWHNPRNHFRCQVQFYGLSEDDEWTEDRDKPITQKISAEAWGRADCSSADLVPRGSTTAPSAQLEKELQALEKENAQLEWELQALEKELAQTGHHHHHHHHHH

B1: T017001022 (bispecific antibody)
chain: DVQLVESGGGVVQPGGSLRLSCVASGYVHKINFYGWYRQAPGKEREKVAHISIGDQTDYADSAKGRFTISRDESKNTVYLQMNSLRPEDTAAYYCRALSRIWPYDYWGQGTLVTVSSGGGGSGGGSEVQLVESGGGVVQPGGSLRLSCAASGTTLDYYVIGWFRQAPGKEREGVSCISSSDGYTYYADSVKGRFTISRDNAKNTVYLQMNSLRPEDTALYYCATDPYYSSCHPFFADYEYDYWGQGTLVTVSSGGGGSGGGSEVQLVESGGGVVQPGGSLRLSCAASGFTFRSFGMSWVRQAPGKGPEWVSSISGSGSDTLYADSVKGRFTISRDNSKNTLYLQMNSLRPEDTALYYCTIGGSLSRSSQGTLVTVSS
B2: T017001023 (bispecific antibody)
chain: DVQLVESGGGVVQPGGSLRLSCVASGYVHKINFYGWYRQAPGKEREKVAHISIGDQTDYAESAKGRFTISRDESKNTVYLQMNSLRPEDTAAYYCRALSRIYPYDYWGQGTLVTVSSGGGGSGGGSEVQLVESGGGVVQPGGSLRLSCAASGTTLDYYVIGWFRQAPGKEREGVSCISSSDGYTYYADSVKGRFTISRDNAKNTVYLQMNSLRPEDTALYYCATDPYYSSCHPFFADYEYDYWGQGTLVTVSSGGGGSGGGSEVQLVESGGGVVQPGGSLRLSCAASGFTFRSFGMSWVRQAPGKGPEWVSSISGSGSDTLYADSVKGRFTISRDNSKNTLYLQMNSLRPEDTALYYCTIGGSLSRSSQGTLVTVSS
B3: T017001024 (bispecific antibody)
chain: DVQLVESGGGVVQPGGSLRLSCVASGYVHKINFYGWYRQAPGKEREKVAHISIGDQTDYAESAKGRFTISRDESKNTVYLQMNSLRPEDTAAYYCRALSRITPYDYWGQGTLVTVSSGGGGSGGGSEVQLVESGGGVVQPGGSLRLSCAASGTTLDYYVIGWFRQAPGKEREGVSCISSSDGYTYYADSVKGRFTISRDNAKNTVYLQMNSLRPEDTALYYCATDPYYSSCHPFFADYEYDYWGQGTLVTVSSGGGGSGGGSEVQLVESGGGVVQPGGSLRLSCAASGFTFRSFGMSWVRQAPGKGPEWVSSISGSGSDTLYADSVKGRFTISRDNSKNTLYLQMNSLRPEDTALYYCTIGGSLSRSSQGTLVTVSS
B4: T017001029 (bispecific antibody)
chain: EVQLVESGGGVVQPGGSLRLSCAASGTTLDYYVIGWFRQAPGKEREGVSCISSSDGYTYYADSVKGRFTISRDNAKNTVYLQMNSLRPEDTALYYCATDPYYSSCHPFFADYEYDYWGQGTLVTVSSGGGGSGGGSEVQLVESGGGVVQPGGSLRLSCVASGYVHKINFYGWYRQAPGKEREKVAHISIGDQTDYAESAKGRFTISRDESKNTVYLQMNSLRPEDTAAYYCRALSRITPYDYWGQGTLVTVSSGGGGSGGGSEVQLVESGGGVVQPGGSLRLSCAASGFTFRSFGMSWVRQAPGKGPEWVSSISGSGSDTLYADSVKGRFTISRDNSKNTLYLQMNSLRPEDTALYYCTIGGSLSRSSQGTLVTVSS
B5: T017001031 (bispecific antibody)
chain: EVQLVESGGGVVQPGGSLRLSCAASGTTLDYYVIGWFRQAPGKEREGVSCISSSDGYTYYADSVKGRFTISRDNAKNTVYLQMNSLRPEDTALYYCATDPYYSSCHPFFADYEYDYWGQGTLVTVSSGGGGSGGGSEVQLVESGGGVVQPGGSLRLSCVASGYVHKINFYGWYRQAPGKEREKVAHISIGDQTDYAESAKGRFTISRDESKNTVYLQMNSLRPEDTAAYYCRALSRIQPYDYWGQGTLVTVSSGGGGSGGGSEVQLVESGGGVVQPGGSLRLSCAASGFTFRSFGMSWVRQAPGKGPEWVSSISGSGSDTLYADSVKGRFTISRDNSKNTLYLQMNSLRPEDTALYYCTIGGSLSRSSQGTLVTVSS
B6: T017000977 (VHH)
VHH: EVQLVESGGGVVQPGGSLRLSCVASGYVHKINFYGWYRQAPGKEREKVAHISIGDQTDYAVSAKGRFTISRDESKNTVYLQMNSLRPEDTAAYYCRALSRIYPYDYWGQGTLVTVSS
B7: T017000978 (VHH)
VHH: EVQLVESGGGVVQPGGSLRLSCVASGYVHKINFYGWYRQAPGKEREKVAHISIGDQTDYAESAKGRFTISRDESKNTVYLQMNSLRPEDTAAYYCRALSRIYPYDYWGQGTLVTVSS
notes: also called T01700978
B8: T017000979 (VHH)
VHH: EVQLVESGGGVVQPGGSLRLSCVASGYVHKINFYGWYRQAPGKEREKVAHISIGDQTDYAASAKGRFTISRDESKNTVYLQMNSLRPEDTAAYYCRALSRIYPYDYWGQGTLVTVSS
B9: T017000980 (VHH)
VHH: EVQLVESGGGVVQPGGSLRLSCVASGYVHKINFYGWYRQAPGKEREKVAHISIGDQTDYAQSAKGRFTISRDESKNTVYLQMNSLRPEDTAAYYCRALSRIYPYDYWGQGTLVTVSS
B10: T017000981 (VHH)
VHH: EVQLVESGGGVVQPGGSLRLSCVASGYVHKINFYGWYRQAPGKEREKVAHISIGDQTDYASSAKGRFTISRDESKNTVYLQMNSLRPEDTAAYYCRALSRIYPYDYWGQGTLVTVSS
B11: T017000995 (VHH)
VHH: EVQLVESGGGVVQPGGSLRLSCVASGYVHKINFYGWYRQAPGKEREKVAHISIGDQTDYAESAKGRFTISRDESKNTVYLQMNSLRPEDTAAYYCRALSRIQPYDYWGQGTLVTVSS
B12: T017000999 (VHH)
VHH: EVQLVESGGGVVQPGGSLRLSCVASGYVHKINFYGWYRQAPGKEREKVAHISIGDQTDYAESAKGRFTISRDESKNTVYLQMNSLRPEDTAAYYCRALSRISPYDYWGQGTLVTVSS
notes: also called T01700999
B13: T017001001 (VHH)
VHH: EVQLVESGGGVVQPGGSLRLSCVASGYVHKINFYGWYRQAPGKEREKVAHISIGDQTDYAESAKGRFTISRDESKNTVYLQMNSLRPEDTAAYYCRALSRITPYDYWGQGTLVTVSS

Experiments:
[1] = target: human T cell receptor (TCRαβ) on primary human T cells (human); assay: cell-based or functional assay
Sequence of human T cell receptor (TCRαβ) on primary human T cells (human) (P0DTU3 134-275, chain 1 of 2): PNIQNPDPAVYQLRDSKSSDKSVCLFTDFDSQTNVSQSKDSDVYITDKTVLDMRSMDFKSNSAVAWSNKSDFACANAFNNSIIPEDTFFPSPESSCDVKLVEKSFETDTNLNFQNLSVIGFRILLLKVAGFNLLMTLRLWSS
Sequence of human T cell receptor (TCRαβ) on primary human T cells (human) (P01850 other isoform, or with tags, fused parts or gaps, chain 2 of 2, further chain): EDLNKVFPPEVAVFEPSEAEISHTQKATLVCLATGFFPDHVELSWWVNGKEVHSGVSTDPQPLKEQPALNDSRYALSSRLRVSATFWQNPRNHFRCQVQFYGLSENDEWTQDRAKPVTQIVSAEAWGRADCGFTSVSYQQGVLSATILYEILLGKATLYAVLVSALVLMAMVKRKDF

[2] = target: T1, cynomolgus TCRαβ-zipper protein; assay: SPR Biacore 8K+, multi-cycle kinetics, TCR-zipper immobilized
Method: Binding of purified TCE-CD123-ALB and CD123-TCE-ALB ISVD constructs to human TCRαβ-zipper protein (huTCR(2XN9)-zipper, in-house produced) and cynomolgus TCRαβ-zipper protein (cyTCR(AEA41865)-zipper, in-house produced) was probed by Surface Plasmon Resonance (SPR) (Cytiva, Biacore 8K+). Both targets were immobilized on a CM5 sensor chip using standard amine coupling chemistry. […] Each concentration of the ISVDs was injected for 180s and dissociation was assessed during 600s.
Data was double referenced by subtracting a reference flow cell (FC) and a blank buffer injection. Affinity constants (ka, kd and KD) were calculated applying the Langmuir 1:1 interaction model using the Biacore Insight Evaluation Software (Cytiva, Version 3.0.12.15655).

[3] = target: T1, cynomolgus TCRαβ-zipper protein; assay: SPR ProteOn XPR36, multi-cycle kinetics, TCR-zipper immobilized;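 also: monovalent His-tagged ISVD constructs flowed at six concentrations over amine-coupled TCR on a GLC chip, 120 s association, 600 s dissociation, double-referenced, fitted to 1:1 Langmuir model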
Method: Binding of purified, monovalent TCE-FLAG3-HIS6 and TCE-HIS6 ISVD constructs to human TCRαβ-zipper protein (huTCR(2XN9)-zipper, in-house produced) and cynomolgus TCRαβ-zipper protein (cyTCR(AEA41865)-zipper, in-house produced) was probed by Surface Plasmon Resonance (SPR) (Bio-rad Laboratories, Inc., ProteOn XPR36). Both targets were immobilized on a GLC sensor chip (short matrix, normal capacity) using standard amine coupling chemistry. ISVD constructs were injected at 6 different concentrations in a multi-cycle kinetics (MCK) experiment. Each concentration of the ISVDs was injected for 120s and dissociation was assessed during 600s.
Data was double referenced by subtracting a reference analyte lane and a blank buffer injection. Affinity constants (ka, kd and KD) were calculated applying the Langmuir 1:1 interaction model using the ProteOn Manager 3.1.0 (Bio-rad Laboratories, Inc., Version 3.1.0.6).

| Binder | EC50 (M), human T cell mediated MOLM-13 cell killing, Donor #1 [1] | EC50 (M), human T cell mediated MOLM-13 cell killing, Donor #2 [1] | Kd [2] | KD ratio cy/huTCR [3] | KD ratio vs ref [3] | Kd [3] | koff [3] | kon [3] |
| --- | --- | --- | --- | --- | --- | --- | --- | --- |
| B1 | 1.5e-11 M | 1.4e-10 M | 15 nM | – | – | – | – | – |
| B2 | 2.4e-11 M | 1.1e-10 M | 37 nM | – | – | – | – | – |
| B3 | – | 9.8e-10 M | 2400 nM | – | – | – | – | – |
| B4 | – | – | 9100 nM | – | – | – | – | – |
| B5 | – | – | 18000 nM | – | – | – | – | – |
| B6 | – | – | – | 4.3 | 2.4 | 19 nM | 0.0035 s⁻¹ | 180000 M⁻¹ s⁻¹ |
| B7 | – | – | – | 4 | 2.5 | 20 nM | 0.0033 s⁻¹ | 170000 M⁻¹ s⁻¹ |
| B8 | – | – | – | 3.8 | 2.3 | 19 nM | 0.0035 s⁻¹ | 180000 M⁻¹ s⁻¹ |
| B9 | – | – | – | 4 | 2.1 | 17 nM | 0.0034 s⁻¹ | 210000 M⁻¹ s⁻¹ |
| B10 | – | – | – | 3.8 | 2.1 | 17 nM | 0.0035 s⁻¹ | 210000 M⁻¹ s⁻¹ |
| B11 | – | – | – | 2 | 246 | 2000 nM | 0.093 s⁻¹ | 47000 M⁻¹ s⁻¹ |
| B12 | – | – | – | 2.5 | 43 | 350 nM | 0.018 s⁻¹ | 51000 M⁻¹ s⁻¹ |
| B13 | – | – | – | 3.1 | 133 | 1100 nM | 0.034 s⁻¹ | 32000 M⁻¹ s⁻¹ |

From patent US20240109965A1 (Ablynx, published 2024)
